The results in this text go back to patent US20140315251A1 (ZOETIS SERVICES, published 2014).

Experiment [1] deals with T1, feline IL-31 full-length construct for E. coli expression (feline).
T1 construct: Purified from E. coli under denaturing conditions and dialysed; also called feline IL-31 protein
T1 chain: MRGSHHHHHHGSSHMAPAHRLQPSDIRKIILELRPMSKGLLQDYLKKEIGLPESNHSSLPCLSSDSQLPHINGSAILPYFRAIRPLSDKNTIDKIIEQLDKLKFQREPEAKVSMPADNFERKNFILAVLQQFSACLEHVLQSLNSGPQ
Description: Western blot under reducing conditions, purified protein from mammalian and E. coli sources.

The target of experiment [2] is T2, canine IL-31 full-length construct for E. coli expression (canine).
T2 construct: also called canine IL-31 (E. coli)
T2 chain: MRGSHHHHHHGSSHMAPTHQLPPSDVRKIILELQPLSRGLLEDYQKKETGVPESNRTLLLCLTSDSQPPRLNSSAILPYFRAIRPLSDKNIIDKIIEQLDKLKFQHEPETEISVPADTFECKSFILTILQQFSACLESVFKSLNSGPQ
Description: Western blot of purified IL-31 proteins.

In experiment [3] the target is T1, feline IL-31 full-length construct for …. Description: Western blot of purified IL-31 proteins. (In western blotting, separated proteins are transferred to a membrane and probed.)
For experiment [4], the target named is T3, canine IL-31 20-100 construct (canine).
T3 construct: The range counts on the full-length E. coli construct; also called C-terminal truncation at positions 20-100
In words: Western blot of crude E. coli lysates. The procedure:
(§1) It was observed that the full length IL-31 protein was expressed very poorly. […] Antibodies 11E12 and 34D03 all bound to the −20N protein. Therefore, further work was carried out using this −20 N construct. Constructs representing C-terminal truncations at positions 20-122 (MW 15.3 with his tag), 20-100 (MW 12.9 with his tag), and 20-80 (MW 10.4 with his tag), were made to assess mAb binding to these areas on the IL-31 protein. The amino acid and nucleotide sequences corresponding to the 20-122 construct are SEQ ID NOs: 63 and 64, respectively. The amino acid and nucleotide sequences corresponding to the 20-100 construct are SEQ ID NOs: 65 and 66, respectively. The amino acid and nucleotide sequences corresponding to the 20-80 construct are SEQ ID NOs: 67 and 68, respectively. […] This region corresponds to amino acid Nos. between amino acid residues 102 and 122 of the canine IL-31 full-length protein sequence of SEQ ID NO: 32. […] In addition, the pET101D-lacZ protein was used as a control to confirm the lack of non-specific binding of mAbs to host proteins.

Experiment [5] deals with T4, canine IL-31 20-122 construct (canine).
T4 construct: also called C-terminal truncation at positions 20-122
T4 chain: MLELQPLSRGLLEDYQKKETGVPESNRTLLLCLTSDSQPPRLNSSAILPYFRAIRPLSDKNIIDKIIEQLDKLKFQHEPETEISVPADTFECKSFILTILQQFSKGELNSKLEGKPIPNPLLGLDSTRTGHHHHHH
In words: Western blot of crude E. coli lysates. As for the experimental part: as §1

The target in another experiment is T5, pET101D-lacZ protein (UniProt P00722 1-1024 = β-galactosidase, limits assumed).
T5 construct: Control lane on the truncation blots; also called beta-galactosidase (lacZ)
In words: Western blot of crude E. coli lysates. As for the experimental part:
as §1

In experiment [6] the target is T6, canine IL-31 -60N construct (canine).
T6 construct: Crude E. coli lysate on Western blot; also called N-terminal truncation -60N
In words: Western blot of crude E. coli lysates. The procedure:
as §1

The target in experiment [7] is T7, canine IL-31 -20N construct (canine).
T7 construct: Crude E. coli lysate on Western blot; also called N-terminal truncation -20N; -20N protein
Description: Western blot of crude E. coli lysates. As for the experimental part: as §1

Experiment [8] concerns the target T8, canine IL-31 20-80 construct (canine).
T8 construct: The range counts on the full-length E. coli construct; also called C-terminal truncation at positions 20-80
T8 chain: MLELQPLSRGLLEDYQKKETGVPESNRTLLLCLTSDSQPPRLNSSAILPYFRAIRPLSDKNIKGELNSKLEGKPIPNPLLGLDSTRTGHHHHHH
In words: Western blot of crude E. coli lysates. As for the experimental part: as §1

In experiment [9] the target is T9, canine IL-31 -40N construct (canine).
T9 construct: Crude E. coli lysate on Western blot; also called N-terminal truncation -40N
In words: Western blot of crude E. coli lysates. The procedure: as §1

The target in experiment [10] is T10, canine IL-31 with triple alanine substitution (I81A, D82A, I85A) (canine).
T10 construct: Positions count on the full-length E. coli construct; also called triple mutation
In words: Western blot of E. coli lysates. The text has this:
(§2) To examine the impact of multiple mutations in the region of IL-31 important for binding to the 11E12 and 34D03 antibodies, expression plasmids were constructed with double (D82A, […]) and triple (I81A, D82A, I85A) alanine substitutions. E. coli lysates expressing canine IL-31 with these double and triple mutations in addition to the −20N control were blotted with 11E12 and 34D03 antibodies (FIG. 16). It is apparent that these three amino acids on canine IL-31 are involved with recognition of 11E12 and 34D03 as complete abrogation of binding is observed when these sites are changed to alanine. These three amino acids correspond to amino acid residues 103, 104 and 107 of the canine IL-31 full-length protein sequence of SEQ ID NO: 32.

Experiment [11] concerns the target T11, canine IL-31 with double alanine substitution (D82A, I85A) (canine).
T11 construct: The -20N backbone is stated for the alanine scan and -20N was the control on this blot; also called double mutation
In words: Western blot of E. coli lysates.
From the text: as §2

T5 sequence (P00722 whole entry, the tested form may be a part): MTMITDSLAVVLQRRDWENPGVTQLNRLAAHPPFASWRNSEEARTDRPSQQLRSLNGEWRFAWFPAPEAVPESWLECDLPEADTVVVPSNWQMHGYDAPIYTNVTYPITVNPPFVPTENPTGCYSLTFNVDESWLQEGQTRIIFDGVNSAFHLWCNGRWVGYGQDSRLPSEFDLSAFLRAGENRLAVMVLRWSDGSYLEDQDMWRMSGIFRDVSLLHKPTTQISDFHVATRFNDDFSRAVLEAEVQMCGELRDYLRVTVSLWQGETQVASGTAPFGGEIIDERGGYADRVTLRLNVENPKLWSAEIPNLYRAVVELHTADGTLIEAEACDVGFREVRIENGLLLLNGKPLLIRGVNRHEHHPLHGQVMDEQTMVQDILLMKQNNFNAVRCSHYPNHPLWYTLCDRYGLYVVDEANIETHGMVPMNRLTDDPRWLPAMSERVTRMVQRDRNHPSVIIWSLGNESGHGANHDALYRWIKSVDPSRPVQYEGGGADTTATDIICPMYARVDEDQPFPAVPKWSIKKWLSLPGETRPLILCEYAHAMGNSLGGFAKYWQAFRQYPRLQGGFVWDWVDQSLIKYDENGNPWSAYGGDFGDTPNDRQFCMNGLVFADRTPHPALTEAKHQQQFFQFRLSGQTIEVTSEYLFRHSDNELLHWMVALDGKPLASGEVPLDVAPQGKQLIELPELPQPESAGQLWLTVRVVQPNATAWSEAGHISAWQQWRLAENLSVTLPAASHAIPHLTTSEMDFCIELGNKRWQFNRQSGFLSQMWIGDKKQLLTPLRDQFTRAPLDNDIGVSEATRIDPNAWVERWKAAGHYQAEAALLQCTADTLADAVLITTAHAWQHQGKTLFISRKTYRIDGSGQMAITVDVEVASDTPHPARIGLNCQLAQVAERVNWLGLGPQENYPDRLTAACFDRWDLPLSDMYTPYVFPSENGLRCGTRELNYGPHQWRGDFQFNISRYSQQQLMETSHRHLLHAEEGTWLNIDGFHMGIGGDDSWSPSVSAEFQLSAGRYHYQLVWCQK

B1: Felinized 34D03 (antibody, V domains shown)
VH: DVQLVESGGDLVKPGGSLRLTCVASGFTYSNYGMSWVRQAPGKGLQWVATISYGGSYTYYPDNIKGRFTISRDNAKNTLYLQMNSLKTEDTATYYCVRGYGYDTMDYWGQGTLVTVSS
VL: EIQMTQSPSSLSASPGDRVTITCKASQSVSFAGTGLMHWYQQKPGKVPKLLIYRASNLEAGVPSRFSGSGSGTDFTLTISSLEPEDAATYYCQQSREYPWTFGQGTKLEIKR
notes: Produced from HEK cells; also called feline 34D03; felinized antibody 34D03
Take B1: the binding result in experiment [1] is listed as “binds”.

B2: Mouse 34D03 (antibody, V domains shown)
VH: EVQLVESGGDLVKPGGSLKLSCAASGFSFSNYGMSWVRQTPDKRLEWVATISYGGSYTYYPDNIKGRFTISRDNAKNTLYLQMSSLKSEDTAMYYCVRGYGYDTMDYWGQGTSVTVSS
VL: DILLTQSPASLAVSLGQRAIISCKASQSVSFAGTGLMHWYQQKPGQQPKLLIYRASNLEAGVPTRFSGSGSRTDFTLNIHPVEEEDAATYFCQQSREYPWTFGGGTKLEIK
notes: Mouse hybridoma monoclonal; also called mAb 34D03; MU-34D03
For the molecule B2, the binding result was “binds” in experiment [2]; “binds” in experiment [3]; “binds” in [4]; “binds” in experiment [5]; “no binding” with pET101D-lacZ protein; “binds” in experiment [6]. Besides, the binding result is on record as “binds” in experiment [7]; “no binding” in [8]; “binds” in [9]; “no binding” in experiment [10]; “no binding” in [11].

B3: Mouse 11E12 (antibody, V domains shown)
VH: QVQLQQSGAELVKPGASVKLSCKASGYTFKYYDINWVRQRPEQGLEWIGWIFPGDGGTKYNETFKGKATLTTDKSSSTAYMQLSRLTSEDSAVYFCARGGTSVIRDAMDYWGQGTSVTVSS
VL: DIVLTQSPASLAVSLGQRATISCRASESVDNYGISFMHWYQQKPGQPPKLLIYRASNLESGIPARFSGSGSRTDFTLTINPVETDDVATYYCQQSNKDPLTFGAGTKLELK
notes: Mouse hybridoma monoclonal; also called mAb 11E12; MU-11E12
As to B3, the binding result in experiment [3] was “binds”; in the experiment with pET101D-lacZ protein, “no binding”.
